Experimental data: the supplement of paper PMC10567573

B1: TOR1AIP2 (parent)
chain: HHVADAYTSSQKVSPIQIDGAGRT

Variants of: B1
Assay: protein stability index of a GFP-peptide fusion (GPS, HEK-293T) (PSI 1-6); higher = more stable
Settings: c terminus: a fixed tail appended
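Note: lentivirally expressed fusions sorted by FACS into six bins by GFP to DsRed ratio, PSI derived from sequencing read proportions per bin multiplied by bin number.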

| Variant | protein stability index |
| --- | --- |
| HHVADAYTSSQKVSPIQIDCAGRT | 3.19 |
| HHVADAYTSSQKVSPIQIDDAGRT | 4.01 |
| HHVADAYTSSQKVSPIQIDEAGRT | 3.36 |
| HHVADAYTSSQKVSPIQIDFAGRT | 3.06 |
| HHVADAYTSSQKVSPIQIDHAGRT | 3.31 |
| HHVADAYTSSQKVSPIQIDIAGRT | 3.04 |
| HHVADAYTSSQKVSPIQIDKAGRT | 3.38 |
| HHVADAYTSSQKVSPIQIDLAGRT | 2.78 |
| HHVADAYTSSQKVSPIQIDMAGRT | 3.44 |
| HHVADAYTSSQKVSPIQIDNAGRT | 3.58 |
| HHVADAYTSSQKVSPIQIDPAGRT | 3.28 |
| HHVADAYTSSQKVSPIQIDQAGRT | 3.7 |
| HHVADAYTSSQKVSPIQIDRAGRT | 3.38 |
| HHVADAYTSSQKVSPIQIDSAGRT | 3.23 |
| HHVADAYTSSQKVSPIQIDTAGRT | 3.48 |
| HHVADAYTSSQKVSPIQIDVAGRT | 3.33 |
| HHVADAYTSSQKVSPIQIDWAGRT | 2.33 |
| HHVADAYTSSQKVSPIQIDYAGRT | 2.83 |
| HHVADAYTSSQKVSPIQIDGCGRT | 3.48 |
| HHVADAYTSSQKVSPIQIDGDGRT | 4.16 |
| HHVADAYTSSQKVSPIQIDGEGRT | 3.32 |
| HHVADAYTSSQKVSPIQIDGFGRT | 3.18 |
| HHVADAYTSSQKVSPIQIDGGGRT | 3.62 |
| HHVADAYTSSQKVSPIQIDGHGRT | 3.7 |

| Variant | protein stability index |
| --- | --- |
| HHVADAYTSSQKVSPIQIDGIGRT | 3.34 |
| HHVADAYTSSQKVSPIQIDGKGRT | 3.42 |
| HHVADAYTSSQKVSPIQIDGLGRT | 3.42 |
| HHVADAYTSSQKVSPIQIDGMGRT | 3.58 |
| HHVADAYTSSQKVSPIQIDGNGRT | 3.44 |
| HHVADAYTSSQKVSPIQIDGPGRT | 3.48 |
| HHVADAYTSSQKVSPIQIDGQGRT | 3.85 |
| HHVADAYTSSQKVSPIQIDGRGRT | 3.55 |
| HHVADAYTSSQKVSPIQIDGSGRT | 3.67 |
| HHVADAYTSSQKVSPIQIDGTGRT | 3.85 |
| HHVADAYTSSQKVSPIQIDGVGRT | 3.34 |
| HHVADAYTSSQKVSPIQIDGWGRT | 2.67 |
| HHVADAYTSSQKVSPIQIDGYGRT | 3.22 |
| HHVADAYTSSQKVSPIQIDGAART | 3.58 |
| HHVADAYTSSQKVSPIQIDGACRT | 3.6 |
| HHVADAYTSSQKVSPIQIDGADRT | 3.99 |
| HHVADAYTSSQKVSPIQIDGAERT | 3.93 |
| HHVADAYTSSQKVSPIQIDGAFRT | 2.7 |
| HHVADAYTSSQKVSPIQIDGAHRT | 3.47 |
| HHVADAYTSSQKVSPIQIDGAIRT | 3.26 |
| HHVADAYTSSQKVSPIQIDGAKRT | 3.72 |
| HHVADAYTSSQKVSPIQIDGALRT | 2.92 |
| HHVADAYTSSQKVSPIQIDGAMRT | 3.32 |
| HHVADAYTSSQKVSPIQIDGANRT | 3.25 |

| Variant | protein stability index |
| --- | --- |
| HHVADAYTSSQKVSPIQIDGAPRT | 3.61 |
| HHVADAYTSSQKVSPIQIDGAQRT | 3.5 |
| HHVADAYTSSQKVSPIQIDGARRT | 3.19 |
| HHVADAYTSSQKVSPIQIDGASRT | 3.36 |
| HHVADAYTSSQKVSPIQIDGATRT | 3.09 |
| HHVADAYTSSQKVSPIQIDGAVRT | 3.4 |
| HHVADAYTSSQKVSPIQIDGAWRT | 2.46 |
| HHVADAYTSSQKVSPIQIDGAYRT | 2.82 |
| HHVADAYTSSQKVSPIQIDGAGAT | 3.86 |
| HHVADAYTSSQKVSPIQIDGAGCT | 3.68 |
| HHVADAYTSSQKVSPIQIDGAGDT | 4.11 |
| HHVADAYTSSQKVSPIQIDGAGET | 3.91 |
| HHVADAYTSSQKVSPIQIDGAGFT | 3.12 |
| HHVADAYTSSQKVSPIQIDGAGGT | 3.68 |
| HHVADAYTSSQKVSPIQIDGAGHT | 3.76 |
| HHVADAYTSSQKVSPIQIDGAGIT | 3.45 |
| HHVADAYTSSQKVSPIQIDGAGKT | 3.28 |
| HHVADAYTSSQKVSPIQIDGAGLT | 3.36 |
| HHVADAYTSSQKVSPIQIDGAGMT | 3.26 |
| HHVADAYTSSQKVSPIQIDGAGNT | 3.81 |
| HHVADAYTSSQKVSPIQIDGAGPT | 3.01 |
| HHVADAYTSSQKVSPIQIDGAGQT | 3.71 |
| HHVADAYTSSQKVSPIQIDGAGST | 3.83 |
| HHVADAYTSSQKVSPIQIDGAGTT | 3.47 |

| Variant | protein stability index |
| --- | --- |
| HHVADAYTSSQKVSPIQIDGAGVT | 3.29 |
| HHVADAYTSSQKVSPIQIDGAGWT | 3.1 |
| HHVADAYTSSQKVSPIQIDGAGYT | 2.94 |
| HHVADAYTSSQKVSPIQIDGAGRA | 3.36 |
| HHVADAYTSSQKVSPIQIDGAGRC | 3.43 |
| HHVADAYTSSQKVSPIQIDGAGRD | 4.18 |
| HHVADAYTSSQKVSPIQIDGAGRE | 4 |
| HHVADAYTSSQKVSPIQIDGAGRF | 2.81 |
| HHVADAYTSSQKVSPIQIDGAGRG | 3.85 |
| HHVADAYTSSQKVSPIQIDGAGRH | 3.38 |
| HHVADAYTSSQKVSPIQIDGAGRI | 3 |
| HHVADAYTSSQKVSPIQIDGAGRK | 3.9 |
| HHVADAYTSSQKVSPIQIDGAGRL | 3.09 |
| HHVADAYTSSQKVSPIQIDGAGRM | 2.98 |
| HHVADAYTSSQKVSPIQIDGAGRN | 3.97 |
| HHVADAYTSSQKVSPIQIDGAGRP | 3.46 |
| HHVADAYTSSQKVSPIQIDGAGRQ | 3.3 |
| HHVADAYTSSQKVSPIQIDGAGRR | 3.68 |
| HHVADAYTSSQKVSPIQIDGAGRS | 3.58 |
| HHVADAYTSSQKVSPIQIDGAGRV | 3.51 |
| HHVADAYTSSQKVSPIQIDGAGRW | 2.97 |
| HHVADAYTSSQKVSPIQIDGAGRY | 2.93 |
